Assay results: US20140212379A1 (AbbVie / Abbott, published 2014)
Positions count from the first letter of the chain named. Blank lines part the entries; values can stand above or below the binder they belong to.

How the values were obtained:
Test in all cases: cell-based or functional assay
Cynomolgus IL-1α = target: T1, Cynomolgus IL-1α (cynomolgus, UniProt P79340 113-271)
T1 sequence (looked up): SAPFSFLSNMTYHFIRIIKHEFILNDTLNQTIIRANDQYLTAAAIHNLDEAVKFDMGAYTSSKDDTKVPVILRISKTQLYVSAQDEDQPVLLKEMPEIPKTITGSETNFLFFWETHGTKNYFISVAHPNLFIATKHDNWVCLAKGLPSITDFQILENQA

Human mature IL-1α = target: T2, Human mature IL-1α (human, UniProt P01583 113-271)
T2 sequence: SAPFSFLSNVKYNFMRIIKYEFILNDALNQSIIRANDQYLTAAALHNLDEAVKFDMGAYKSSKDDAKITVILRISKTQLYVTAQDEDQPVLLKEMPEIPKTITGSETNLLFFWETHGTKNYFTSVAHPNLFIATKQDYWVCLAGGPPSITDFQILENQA

Cynomolgus IL-1β = target: T3, Cynomolgus IL-1β (cynomolgus, UniProt P79182 117-268)
T3 sequence (looked up): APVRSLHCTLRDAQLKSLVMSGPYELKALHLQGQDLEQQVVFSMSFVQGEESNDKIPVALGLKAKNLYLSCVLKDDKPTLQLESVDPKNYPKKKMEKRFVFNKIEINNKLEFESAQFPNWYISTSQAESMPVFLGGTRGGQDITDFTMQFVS

Human mature IL-1β = Human mature IL-1β (human, UniProt P01584 117-269)

B1: E26.13-LL-X3 DVD-Ig (bispecific antibody, human IgG1, kappa, L234A L235A)
heavy: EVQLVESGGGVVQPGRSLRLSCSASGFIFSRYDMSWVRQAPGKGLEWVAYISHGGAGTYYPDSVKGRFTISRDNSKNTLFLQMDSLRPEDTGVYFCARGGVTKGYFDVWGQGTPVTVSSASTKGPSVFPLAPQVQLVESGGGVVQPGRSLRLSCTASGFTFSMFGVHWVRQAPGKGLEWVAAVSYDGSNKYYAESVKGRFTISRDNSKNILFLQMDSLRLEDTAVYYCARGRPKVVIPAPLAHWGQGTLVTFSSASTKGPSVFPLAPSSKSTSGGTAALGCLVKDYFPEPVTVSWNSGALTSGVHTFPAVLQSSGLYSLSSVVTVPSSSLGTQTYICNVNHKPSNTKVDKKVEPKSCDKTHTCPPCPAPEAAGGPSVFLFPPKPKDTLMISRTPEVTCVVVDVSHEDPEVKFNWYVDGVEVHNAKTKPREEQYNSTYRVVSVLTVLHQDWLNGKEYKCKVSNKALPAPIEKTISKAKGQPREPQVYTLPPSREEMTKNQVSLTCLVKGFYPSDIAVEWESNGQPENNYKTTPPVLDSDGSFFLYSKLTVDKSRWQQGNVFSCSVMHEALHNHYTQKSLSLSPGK
light: DIQMTQSPSSLSASVGDRVTITCRASGNIHNYLTWYQQTPGKAPKLLIYNAKTLADGVPSRFSGSGSGTDYTFTISSLQPEDIATYYCQHFWSIPYTFGQGTKLQITRTVAAPSVFIFPPDIQMTQSPSSVSASVGDRVTITCRASQGISSWLAWYQQKPGKAPKLLIYEASNLETGVPSRFSGSGSGSDFTLTISSLQPEDFATYYCQQTSSFLLSFGGGTKVEHKRTVAAPSVFIFPPSDEQLKSGTASVVCLLNNFYPREAKVQWKVDNALQSGNSQESVTEQDSKDSTYSLSSTLTLSKADYEKHKVYACEVTHQGLSSPVTKSFNRGEC
Potency (pM), inhibition of IL-1-induced hIL-8 in MRC5 cells (Cynomolgus IL-1α): 1050 pM | Potency (pM), inhibition of IL-1-induced hIL-8 in MRC5 cells (Human mature IL-1α): 10.2 pM

B2: E26.13-SS-X3 JM DVD-Ig (bispecific antibody, human IgG1, kappa, L234A L235A)
heavy: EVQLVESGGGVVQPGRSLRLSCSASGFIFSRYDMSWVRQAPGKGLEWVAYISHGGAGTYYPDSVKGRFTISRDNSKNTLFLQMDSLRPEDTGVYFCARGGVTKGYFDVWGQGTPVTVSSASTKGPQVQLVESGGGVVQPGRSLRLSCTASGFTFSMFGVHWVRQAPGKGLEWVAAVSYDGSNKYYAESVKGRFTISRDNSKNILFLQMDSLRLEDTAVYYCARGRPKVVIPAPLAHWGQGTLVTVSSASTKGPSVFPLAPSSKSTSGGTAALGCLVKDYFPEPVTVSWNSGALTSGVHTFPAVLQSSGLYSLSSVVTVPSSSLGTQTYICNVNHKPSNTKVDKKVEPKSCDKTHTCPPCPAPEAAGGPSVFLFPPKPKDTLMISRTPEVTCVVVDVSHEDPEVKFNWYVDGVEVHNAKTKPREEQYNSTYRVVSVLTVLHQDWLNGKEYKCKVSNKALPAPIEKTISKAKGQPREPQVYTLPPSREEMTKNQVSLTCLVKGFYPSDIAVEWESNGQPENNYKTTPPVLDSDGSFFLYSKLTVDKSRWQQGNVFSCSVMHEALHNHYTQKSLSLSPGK
light: DIQMTQSPSSLSASVGDRVTITCRASGNIHNYLTWYQQTPGKAPKLLIYNAKTLADGVPSRFSGSGSGTDYTFTISSLQPEDIATYYCQHFWSIPYTFGQGTKLQITRTVAAPDIQMTQSPSSVSASVGDRVTITCRASQGISSWLAWYQQKPGKAPKLLIYEASNLETGVPSRFSGSGSGSDFTLTISSLQPEDFATYYCQQTSSFLLSFGGGTKVEIKRTVAAPSVFIFPPSDEQLKSGTASVVCLLNNFYPREAKVQWKVDNALQSGNSQESVTEQDSKDSTYSLSSTLTLSKADYEKHKVYACEVTHQGLSSPVTKSFNRGEC
Potency (pM), inhibition of IL-1-induced hIL-8 in MRC5 cells (Cynomolgus IL-1β): 17.6 pM | Potency (pM), inhibition of IL-1-induced hIL-8 in MRC5 cells (Cynomolgus IL-1α): 1880 pM | Potency (pM), inhibition of IL-1-induced hIL-8 in MRC5 cells (Human mature IL-1α): 26.5 pM

The next lines start with the values.

Potency (pM), inhibition of IL-1-induced hIL-8 in MRC5 cells (Cynomolgus IL-1β): 0.6 pM | Potency (pM), inhibition of IL-1-induced hIL-8 in MRC5 cells (Cynomolgus IL-1α): 474 pM | Potency (pM), inhibition of IL-1-induced hIL-8 in MRC5 cells (Human mature IL-1β): 1.8 pM | Potency (pM), inhibition of IL-1-induced hIL-8 in MRC5 cells (Human mature IL-1α): 25.8 pM
B3: E26.35-SS-X3 DVD-Ig (bispecific antibody, human IgG1, kappa, L234A L235A)
heavy: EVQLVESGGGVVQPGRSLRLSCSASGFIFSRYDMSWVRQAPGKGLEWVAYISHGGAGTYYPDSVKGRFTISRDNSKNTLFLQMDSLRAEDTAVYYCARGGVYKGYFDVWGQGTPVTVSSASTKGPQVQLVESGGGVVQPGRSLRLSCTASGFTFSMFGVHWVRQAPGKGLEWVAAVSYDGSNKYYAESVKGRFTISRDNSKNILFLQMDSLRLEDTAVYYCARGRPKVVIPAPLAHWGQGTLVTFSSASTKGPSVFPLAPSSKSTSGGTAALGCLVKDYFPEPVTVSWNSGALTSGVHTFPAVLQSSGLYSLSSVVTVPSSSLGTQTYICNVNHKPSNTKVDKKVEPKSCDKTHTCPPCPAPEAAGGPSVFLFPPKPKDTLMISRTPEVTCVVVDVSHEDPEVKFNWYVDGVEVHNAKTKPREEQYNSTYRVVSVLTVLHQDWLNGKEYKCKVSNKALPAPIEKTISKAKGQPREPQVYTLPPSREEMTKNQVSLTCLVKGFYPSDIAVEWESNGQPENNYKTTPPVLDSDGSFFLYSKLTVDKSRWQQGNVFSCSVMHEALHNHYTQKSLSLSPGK
light: B2 light with I219H

Potency (pM), inhibition of IL-1-induced hIL-8 in MRC5 cells (Human mature IL-1β): 1470 pM | Potency (pM), inhibition of IL-1-induced hIL-8 in MRC5 cells (Human mature IL-1α): 8.9 pM
B4: X3-LL-E26.13 DVD-Ig (bispecific antibody, human IgG1, kappa, L234A L235A)
heavy: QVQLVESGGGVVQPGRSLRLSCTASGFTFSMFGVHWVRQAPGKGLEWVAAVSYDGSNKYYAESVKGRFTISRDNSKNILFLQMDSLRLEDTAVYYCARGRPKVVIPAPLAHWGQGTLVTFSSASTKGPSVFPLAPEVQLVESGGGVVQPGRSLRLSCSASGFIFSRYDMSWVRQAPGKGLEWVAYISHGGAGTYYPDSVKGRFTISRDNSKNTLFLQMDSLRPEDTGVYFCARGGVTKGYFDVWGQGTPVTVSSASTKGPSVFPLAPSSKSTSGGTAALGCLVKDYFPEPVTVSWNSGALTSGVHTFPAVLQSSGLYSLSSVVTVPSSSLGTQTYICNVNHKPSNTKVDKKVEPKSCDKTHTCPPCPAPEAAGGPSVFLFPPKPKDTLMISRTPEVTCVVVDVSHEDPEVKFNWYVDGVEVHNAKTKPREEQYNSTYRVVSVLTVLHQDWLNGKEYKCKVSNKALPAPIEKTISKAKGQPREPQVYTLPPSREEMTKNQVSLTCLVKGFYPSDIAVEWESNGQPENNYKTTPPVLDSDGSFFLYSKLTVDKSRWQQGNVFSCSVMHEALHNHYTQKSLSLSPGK
light: DIQMTQSPSSVSASVGDRVTITCRASQGISSWLAWYQQKPGKAPKLLIYEASNLETGVPSRFSGSGSGSDFTLTISSLQPEDFATYYCQQTSSFLLSFGGGTKVEHKRTVAAPSVFIFPPDIQMTQSPSSLSASVGDRVTITCRASGNIHNYLTWYQQTPGKAPKLLIYNAKTLADGVPSRFSGSGSGTDYTFTISSLQPEDIATYYCQHFWSIPYTFGQGTKLQITRTVAAPSVFIFPPSDEQLKSGTASVVCLLNNFYPREAKVQWKVDNALQSGNSQESVTEQDSKDSTYSLSSTLTLSKADYEKHKVYACEVTHQGLSSPVTKSFNRGEC
